From US20260250362A1 (published 2026)
Like-named read-outs stand apart in the source and are kept apart here.

What was measured:
[1] = target: T1, recombinant ANDV Gn^H/Gc heterodimer (Andes virus (ANDV)); assay: BLI
PUUV GnH/Gc [2] = assay: BLI
PUUV GnH/Gc [3] = assay: BLI; remark: listed apart in the source
[4] = target: T1, recombinant ANDV Gn^H/Gc heterodimer; assay: BLI; remark: listed apart in the source
PUUV = PUUV (Puumala virus (PUUV)); assay: ELISA

B1: ADI-42898 Fab (Fab, V domains shown)
VH: QVQLVESGGGVVQPGRSLRLSCAASGFTFSSYAMHWVRQAPGKGLEWVAVTWFDVSKKDYADSVKGRFTISRDNSKNTLYLQMNSLRAEDTAVYYCARNLIRYSGSYFPVHGMDVWGQGTTVTVSS
VL: DIVMTQSPLSLPVTPGEPASISCRSSQSLLHTYGYNSLDWYLQRPGQSPQLLISLGSYRASGVPDRFSGSGSGTDFTLKISRVEAEDVGVYYCMQALHPFTFGGGTKVEIK
With B1 the Kd [1] was 19600 nM and the Kd (PUUV GnH/Gc [2]) was 1.9 nM.

B2: ADI-42898 IgG (antibody, V domains shown)
VH: B1 VH
VL: B1 VL
Binder B2 has a Kd (PUUV GnH/Gc [3]) of 1.5 nM.

B3: ADI-42898 (antibody, V domains shown)
VH: B1 VH
VL: B1 VL
B3 gave a Kd [4] of 2.8 nM.

B4: IgG (antibody, V domains shown)
VH: B1 VH
VL: B1 VL
With B4 the EC50 (PUUV) was under 0.1 nM.
